Columns and labels:
[1] = target: T1, KLH (Sigma-Aldrich, H8283); experiment: non-specific ELISA, KLH coated, antibody 100 nM
T1 construct: Coating of the non-specific ELISA
Description: NS-ELISA was used to measure the propensity of the antibodies to bind to a range of biomolecules to emulate the undesirable non-specific interactions to biological matrices in vivo as described below.
NS-ELISA was carried out in Corning® 96-well EIA/RIA Easy Wash™ Clear Flat Bottom Polystyrene High Bind Microplate coated overnight at 4° C. with 50 μL of Heparin (Sigma, H3149) diluted with 50 mM sodium carbonate pH 9.6 to a final concentration of 250 μg/mL. The plate was incubated for 2 days at room temperature, wells that were coated with heparin were not covered to allow air dry. […] 50 μL each of insulin, KLH, dsDNA and ssDNA were added to a 96 well plate, followed by the incubation at 37° C. for 2 h. The coating materials were removed, and the plate was blocked with 200 μL of Gibco™ PBS pH7.4, 0.1% Tween®20, and incubated for 1 h at room temperature with shaking at 200 rpm. The plate was washed 3 times with Gibco™ PBS pH7.4, 0.1% Tween 20. 50 μL of each mAb at 100 nM (15 mg/mL) in Gibco™ PBS pH 7.4, 0.1% Tween®20 was added in duplicate to the wells and incubated for 1 h at room temperature with shaking at 200 rpm. […] Plates were incubated for 1 h at room temperature, with shaking at 200 rpm. The plate was washed three times with Gibco™ PBS pH7.4, 0.1% Tween 20, and 100 μL of TMB substrate (Cell Signaling Technology©, 7004P6) added to each well. […] Binding scores were calculated as the ratio of the ELISA signal of the antibody to the signal of a well containing buffer instead of the primary antibody.

[2] = target: T2, human sodium-dependent phosphate transporter 2B (NaPi2b) (human, UniProt O95436 1-690); experiment: flow cytometry on IGROV-1 cells (endogenous NaPi2b), 24 h at 4 C, anti-human IgG Fc AF647
T2 construct: UniProt ID is given as 095436 [sic]; also called hNaPi2b; Hu NaPi2b
T2 sequence: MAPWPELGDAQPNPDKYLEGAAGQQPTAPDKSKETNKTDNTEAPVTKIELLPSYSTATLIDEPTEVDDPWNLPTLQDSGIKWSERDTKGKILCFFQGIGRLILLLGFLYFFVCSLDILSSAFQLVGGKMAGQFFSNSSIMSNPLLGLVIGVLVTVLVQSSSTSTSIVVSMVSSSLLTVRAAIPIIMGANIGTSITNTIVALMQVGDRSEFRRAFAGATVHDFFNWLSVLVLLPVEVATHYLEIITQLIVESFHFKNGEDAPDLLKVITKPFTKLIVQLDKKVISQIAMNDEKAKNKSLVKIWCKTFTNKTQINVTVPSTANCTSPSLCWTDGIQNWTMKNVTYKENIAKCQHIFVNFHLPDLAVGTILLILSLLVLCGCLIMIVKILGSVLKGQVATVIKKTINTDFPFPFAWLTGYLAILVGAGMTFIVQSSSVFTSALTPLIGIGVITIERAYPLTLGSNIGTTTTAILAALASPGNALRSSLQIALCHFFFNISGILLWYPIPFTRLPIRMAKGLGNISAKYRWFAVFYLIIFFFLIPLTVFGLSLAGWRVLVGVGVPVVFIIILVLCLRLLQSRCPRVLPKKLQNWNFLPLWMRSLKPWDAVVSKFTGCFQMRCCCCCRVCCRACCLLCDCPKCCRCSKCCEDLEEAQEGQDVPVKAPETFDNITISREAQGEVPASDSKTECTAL
Description: (§1) Briefly, cells were seeded at 50,000 cells/well in conical-bottom 96-well plates and treated with test antibody for 24 hours at 4° C. to prevent internalization. […] Following incubation and washing, fluorescence was detected by flow cytometry on a BD LSRFortessa™ Cell Analyzer (BD Biosciences, Franklin Lake, NJ) with 1,000 minimum events collected per well.

[3] = target: T2, human sodium-dependent phosphate …; experiment: flow cytometry, IGROV-1 cells (endogenous NaPi2b); apparent Kd
Description: as §1

[4] = target: T2, human sodium-dependent phosphate …; experiment: flow cytometry, IGROV-1 cells (endogenous NaPi2b); set-up: unit not given here
[5] = target: T2, human sodium-dependent phosphate …; experiment: flow cytometry on OVCAR-3 cells (endogenous NaPi2b), 24 h at 4 C, anti-human IgG Fc AF647
Description: (§2) Following incubation and washing, fluorescence was detected by flow cytometry on a BD LSRFortessa™ Cell Analyzer (BD Biosciences, Franklin Lake, NJ) with 1,000 minimum events collected per well.

mouse NaPi2b = target: T3, mouse NaPi2b (mouse, UniProt Q9DBP0 1-697); experiment: flow cytometry on HEK293-6e cells transfected with mouse NaPi2b, 24 h at 4 C, anti-human IgG Fc AF647
T3 construct: also called Ms NaPi2b; CL #13476
T3 sequence: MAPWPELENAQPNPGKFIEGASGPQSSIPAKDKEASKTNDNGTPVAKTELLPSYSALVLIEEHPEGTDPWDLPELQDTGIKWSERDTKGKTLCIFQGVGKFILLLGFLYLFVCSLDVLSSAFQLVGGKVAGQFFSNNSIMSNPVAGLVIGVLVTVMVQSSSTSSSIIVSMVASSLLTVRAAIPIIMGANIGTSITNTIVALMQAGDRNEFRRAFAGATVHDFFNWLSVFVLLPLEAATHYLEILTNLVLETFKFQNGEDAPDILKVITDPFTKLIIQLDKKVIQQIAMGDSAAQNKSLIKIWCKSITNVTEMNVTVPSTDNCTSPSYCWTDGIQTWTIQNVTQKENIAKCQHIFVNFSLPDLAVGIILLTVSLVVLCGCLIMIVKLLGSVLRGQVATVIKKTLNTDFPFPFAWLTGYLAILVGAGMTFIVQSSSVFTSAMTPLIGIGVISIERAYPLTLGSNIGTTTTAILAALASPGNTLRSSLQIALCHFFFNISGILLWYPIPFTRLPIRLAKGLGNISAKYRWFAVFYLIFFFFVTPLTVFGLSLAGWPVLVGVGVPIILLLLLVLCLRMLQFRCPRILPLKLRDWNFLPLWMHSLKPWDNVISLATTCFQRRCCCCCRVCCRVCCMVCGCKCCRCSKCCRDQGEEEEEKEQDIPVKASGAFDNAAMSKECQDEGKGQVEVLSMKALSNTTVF
Description: (§3) Following transfection, cells were seeded at 50,000 cells/well in conical-bottom 96-well plates and treated with test antibody or antibody-drug conjugate for 24 hours at 4° C. to prevent internalization. […] Following incubation and washing, fluorescence was detected by flow cytometry on a BD LSRFortessa™ Cell Analyzer (BD Biosciences, Franklin Lake, NJ) with 1,000 minimum events collected per well.

cynomolgus monkey NaPi2b = target: T4, cynomolgus monkey NaPi2b (cynomolgus monkey, UniProt O95436 1-690 (human entry)); experiment: flow cytometry on HEK293-6e cells transfected with cynomolgus monkey NaPi2b, 24 h at 4 C, anti-human IgG Fc AF647
T4 construct: also called Cyno NaPi2b; Cy NaPi2b
T4 chain: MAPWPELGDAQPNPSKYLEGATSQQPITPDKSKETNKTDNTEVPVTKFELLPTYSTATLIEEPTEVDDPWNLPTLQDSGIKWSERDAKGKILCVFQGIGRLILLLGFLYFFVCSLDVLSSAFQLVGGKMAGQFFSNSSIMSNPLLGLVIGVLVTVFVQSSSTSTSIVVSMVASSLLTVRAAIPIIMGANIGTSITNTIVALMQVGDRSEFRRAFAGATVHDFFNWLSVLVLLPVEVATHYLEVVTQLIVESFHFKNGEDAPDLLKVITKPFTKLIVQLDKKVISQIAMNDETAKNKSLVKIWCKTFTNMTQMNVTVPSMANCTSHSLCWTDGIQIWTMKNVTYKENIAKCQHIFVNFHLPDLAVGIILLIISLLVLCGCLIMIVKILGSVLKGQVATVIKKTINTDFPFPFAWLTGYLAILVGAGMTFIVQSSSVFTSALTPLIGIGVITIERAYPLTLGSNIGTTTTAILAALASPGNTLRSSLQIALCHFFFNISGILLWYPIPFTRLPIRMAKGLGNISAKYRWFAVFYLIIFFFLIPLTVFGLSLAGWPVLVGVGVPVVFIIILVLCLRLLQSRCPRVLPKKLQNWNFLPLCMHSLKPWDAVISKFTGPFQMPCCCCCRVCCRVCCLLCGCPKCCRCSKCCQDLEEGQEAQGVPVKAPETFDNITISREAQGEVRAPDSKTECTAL
Description: as §3

[6] = target: T2, human sodium-dependent phosphate …; experiment: flow cytometry on IGROV-1 cells (endogenous NaPi2b), 24 h at 4 C, anti-human IgG Fc AF647; remark: listed apart in the source
Description: as §2

[7] = target: T2, human sodium-dependent phosphate …; experiment: flow cytometry on IGROV-1 cells (endogenous NaPi2b), 24 h at 4 C, anti-human IgG Fc AF647, APC-A GeoMean
Description: (§4) Cells were maintained under standard culture conditions (37° C./5% CO₂) until assay set-up. […] Cells were removed from culture vessels using Cell Dissociation Buffer (Invitrogen, Waltham, MA), seeded at 50,000 cells/well in conical-bottom 96-well plates, and treated with test antibody or antibody-drug conjugate for 24 hours at 4° C. to prevent internalization. […] Following incubation and washing, fluorescence was detected by flow cytometry on a BD LSRFortessa™ Cell Analyzer (BD Biosciences, Franklin Lake, NJ) with 1,000 minimum events collected per well.

[8] = target: T2, human sodium-dependent phosphate …; experiment: flow cytometry on H441 cells (endogenous NaPi2b), 24 h at 4 C, anti-human IgG Fc AF647, APC-A GeoMean
Description: as §4

[9] = target: T2, human sodium-dependent phosphate …; experiment: flow cytometry on HCC-78 cells (endogenous NaPi2b), 24 h at 4 C, anti-human IgG Fc AF647, APC-A GeoMean
Description: as §4

B1: v23855 (parental mouse-human chimeric anti-NaPi2b antibody) (antibody, human IgG1, kappa, V domains shown)
VH: QAYLQQSGAELVRPGASVKMSCKASGFTFTSYNVHWVKQTPRQGLEWIAAISPGNGDLSYNQRFKDKATLTVDRSSSTAYMQLSGLTSEDSAVYFCARGRTGMGAVDYWGQGTSVTVSS
VL: DVQMTQTASSLSASLGDRVTISCRASQDVYSYLNWYQQKPHGTVKLLIYYTSRLQSGVPSRFTGSGSGTDYSLTISNLEPEDIATYYCQQYNIFPWTFGGGTKLEIKR
notes: IgG1/kappa full-size antibody; also called parental chimeric
[1]
  NS-ELISA binding score (signal over buffer well): 2.38
[2]
  EC50 (read off the curve): ~0.8 nM
[3]
  Kd: 0.84 nM
[4]
  Bmax: 43700

B2: v18992 (MX35)-DL2 (antibody, human IgG1, kappa)
heavy 1: GQVQLVQSGAEVVKPGASVKMSCKASGYTFTGYNIHWVKQAPGQGLEWIGAIYPGNGDTSYKQKFRGRATLTADTSTSTVYMELSSLRSEDSAVYYCARGETARATFAYWGQGTLVTVSSASTKGPSVFPLAPSSKSTSGGTAALGCLVKDYFPEPVTVSWNSGALTSGVHTFPAVLQSSGLYSLSSVVTVPSSSLGTQTYICNVNHKPSNTKVDKKVEPKSCDKTHTCPPCPAPELLGGPSVFLFPPKPKDTLMISRTPEVTCVVVDVSHEDPEVKFNWYVDGVEVHNAKTKPREEQYNSTYRVVSVLTVLHQDWLNGKEYKCKVSNKALPAPIEKTISKAKGQPREPQVYVYPPSRDELTKNQVSLTCLVKGFYPSDIAVEWESNGQPENNYKTTPPVLDSDGSFALVSKLTVDKSRWQQGNVFSCSVMHEALHNHYTQKSLSLSPG
heavy 2: not shown
light: GDIQMTQSPSSLSASVGDRVTITCSASQDIGNFLNWYQQKPGKTVKVLIYYTSSLYSGVPSRFSGSGSGTDYTLTISSLQPEDFATYYCQQYSKLPLTFGQGTKLELKRTVAAPSVFIFPPSDEQLKSGTASVVCLLNNFYPREAKVQWKVDNALQSGNSQESVTEQDSKDSTYSLSSTLTLSKADYEKHKVYACEVTHQGLSSPVTKSFNRGEC
modifications: as above; maleimide functionalized auristatin drug linker (DL2); sites and DAR not stated
notes: also called MX35-DL2 ADC
[2]
  EC50 (read off the curve): 1 to 1.7 nM
[3]
  Kd: 1.22 nM
[4]
  Bmax: 41200

B3: v38591-MC-GGFG-AM-Compound 139 DAR 8 (antibody, human IgG1, kappa)
heavy: not shown
light: DVQMTQSPSSLSASVGDRVTITCRASQDVYSYLNWYQQKPGKAVKLLIYYTSRLQSGVPSRFSGSGSGTDYTLTISSLQPEDFATYYCQQYNIFPWTFGQGTKLEIKRTVAAPSVFIFPPSDEQLKSGTASVVCLLNNFYPREAKVQWKVDNALQSGNSQESVTEQDSKDSTYSLSSTLTLSKADYEKHKVYACEVTHQGLSSPVTKSFNRGEC
modifications: as above; MC-GGFG-AM-Compound 139 drug-linker on cysteines freed by TCEP reduction; sites not stated; DAR 8
notes: Antibody-drug conjugate of v38591; also called v38593
[5]
  EC50 (read off the curve): ~3 nM
Mouse NaPi2b
  EC50 (read off the curve): ~0.6 nM
Cynomolgus monkey NaPi2b
  EC50 (read off the curve): ~0.5 nM
[6]
  EC50 (read off the curve): ~2 nM

B4: v38591-MC-GGFG-AM-Compound 139 DAR 4 (antibody, human IgG1, kappa)
heavy: not shown
light: DVQMTQSPSSLSASVGDRVTITCRASQDVYSYLNWYQQKPGKAVKLLIYYTSRLQSGVPSRFSGSGSGTDYTLTISSLQPEDFATYYCQQYNIFPWTFGQGTKLEIKRTVAAPSVFIFPPSDEQLKSGTASVVCLLNNFYPREAKVQWKVDNALQSGNSQESVTEQDSKDSTYSLSSTLTLSKADYEKHKVYACEVTHQGLSSPVTKSFNRGEC
modifications: as above; MC-GGFG-AM-Compound 139 drug-linker on cysteines freed by TCEP reduction; sites not stated; DAR 4
notes: Antibody-drug conjugate of v38591
[7]
  EC50 (read off the curve): ~2 nM
[8]
  EC50 (read off the curve): ~0.6 nM
[5]
  EC50 (read off the curve): 2 to 3 nM
[9]
  EC50 (read off the curve): ~3 nM
Cynomolgus monkey NaPi2b
  EC50 (read off the curve): ~0.4 nM
[6]
  EC50 (read off the curve): ~2 nM

B5: v29452 (H1L3) (antibody, human IgG1, kappa, V domains shown)
VH: QVQLVQSGAEVKKPGASVKVSCKASGFTFTSYNVHWVRQAPGQGLEWMGAISPGNGDLSYAQKFQGRVTMTRDTSTSTVYMELSSLRSEDTAVYYCARGRTGMGAVDYWGQGTLVTVSS
VL: DVQMTQSPSSLSASVGDRVTITCRASQDVYSYLNWYQQKPGKAVKLLIYYTSRLQSGVPSRFSGSGSGTDYTLTISSLQPEDIATYYCQQYNIFPWTFGQGTKLEIKR
notes: Humanized IgG1/kappa
[1]
  NS-ELISA binding score (signal over buffer well): 1.34
[3]
  Kd: 1.6 nM
[4]
  Bmax: 47800
